In this assay the target is MBP-CARD9 (human) (UniProt Q9H257). Briefly: other fluorescence titration.

As usually defined, the Kd is a measure of binding affinity in units of concentration.

MBP-CARD9 (human), sequence (Q9H257 whole entry): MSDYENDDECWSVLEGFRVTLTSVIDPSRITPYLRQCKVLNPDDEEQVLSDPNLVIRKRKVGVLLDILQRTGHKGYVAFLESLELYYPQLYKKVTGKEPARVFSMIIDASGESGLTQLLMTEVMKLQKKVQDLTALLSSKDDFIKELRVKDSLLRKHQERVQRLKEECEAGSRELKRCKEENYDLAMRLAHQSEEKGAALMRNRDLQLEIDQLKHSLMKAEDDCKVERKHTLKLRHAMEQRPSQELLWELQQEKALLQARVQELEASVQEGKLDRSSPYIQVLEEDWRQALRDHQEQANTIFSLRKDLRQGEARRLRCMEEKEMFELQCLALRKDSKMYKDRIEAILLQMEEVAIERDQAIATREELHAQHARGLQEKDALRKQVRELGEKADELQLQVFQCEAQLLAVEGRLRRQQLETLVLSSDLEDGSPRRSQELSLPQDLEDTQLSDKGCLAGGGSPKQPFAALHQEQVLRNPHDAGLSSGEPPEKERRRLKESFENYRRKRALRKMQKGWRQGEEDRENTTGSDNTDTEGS

“CK2 complex (New England Bio, P6010L) (from UniProt P68400 1-391; P67870 1-215)” showed a Kd of 300 nM.

Source of the values: article doi:10.1101/2025.02.03.636288.
